Literature values in publication PMC8553002 (Journal of Mass Spectrometry and Advances in the Clinical …, 2020).

Conditions: insulin degraded by the liver, to a minor extent, kidneys

Insulin: hormone released with C-peptide from proinsulin in equimolar amounts
half-life: 3 to 5 min
